The values that follow come from article PMC8623809.

The target of test [1] is bovine submaxillary mucin (BSM), Sigma Type I-S. Kind of test: Intrinsic tryptophan fluorescence quenching (excitation 280 nm, emission maximum 326 nm), Stern-Volmer analysis. As to conditions: 100 mM PBS (composition not further stated), 100 mM PBS adjusted with HCl to pH 7, 5 and 3 (same buffer at all pH values).
The target of test [2] is porcine gastric mucin (PGM), Sigma Type III. The test is described as above. The note with it: 100 mM PBS (composition not further stated), 100 mM PBS adjusted with HCl to pH 7, 5 and 3 (same buffer at all pH values).

Take beta-lactoglobulin (BLG): the Ksv (Stern-Volmer constant, static quenching) (not printed (uM^-1 inferred)) in test [1] (pH 3) turned out to be 0.19; in test [1] (pH 5) it was 0.15; in test [1] (pH 7), 0.23; in test [2] (pH 3), 1.25; in test [2] (pH 5), 0.92; in test [2] (pH 7), 1.08.
